Source: patent US20250066499A1 (SUNSHINE GUOJIAN PHARMACEUTICAL SHANGHAI, published 2025)

What was measured:
CD73-ND-his = biological target: T1, CD73-ND-his (human, UniProt P21589 27-317); assay: ELISA, high plateau value (OD 450 nm)
T1 construct: Biotinylated and captured on streptavidin in the ELISA
T1 sequence: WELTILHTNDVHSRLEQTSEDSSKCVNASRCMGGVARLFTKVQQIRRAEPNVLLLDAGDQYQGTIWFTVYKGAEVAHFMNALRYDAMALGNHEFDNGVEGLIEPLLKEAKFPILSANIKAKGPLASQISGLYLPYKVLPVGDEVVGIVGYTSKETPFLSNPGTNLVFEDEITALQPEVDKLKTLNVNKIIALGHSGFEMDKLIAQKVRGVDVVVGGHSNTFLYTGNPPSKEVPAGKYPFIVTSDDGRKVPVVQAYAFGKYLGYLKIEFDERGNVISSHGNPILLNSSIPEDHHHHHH
Method: (§1) The ELISA plates were coated with SA protein diluted to 1.5 μg/mL in coating buffer (50 mM carbonate coating buffer, pH 9.6) and incubated overnight at 4° C. The supernatant was discarded, and the plates were washed three times with PBST. Then, 5% skimmed milk powder prepared with PBS was added for blocking and the plates were incubated for 2 h at 37° C. After washing the plates once with PBST, CD73-biotin protein (prepared by biotinylating CD73-His protein according to the EZ-Link NHS-Biotin Reagent instructions) was diluted to 0.5 μg/mL and added at 100 μL/well for incubation at room temperature for 1 h. The plates were washed three times with PBST, and the prepared murine-derived monoclonal antibodies against human CD73 were serially diluted with 1% BSA buffer prepared with PBST and added to the ELISA plates at 100 μl/well. The plates were incubated at 37° C. for 1 h. After washing the plates three times with PBST, HRP-labeled goat anti-mouse IgG secondary antibody was added and the plates were incubated for 30 min at 37° C. After washing the plates three times with PBST, the residual droplets were patted dry on absorbent paper as much as possible. Then, 100 μl of TMB color developing solution was added to each well, and the plates were incubated in the dark at room temperature for 5 min for color development. Subsequently, 50 μl of 2M H₂SO₄ stop solution was added to each well to terminate the substrate reaction. The OD values were read at 450 nm using a multimode microplate reader to analyze the binding ability of the tested antibodies to the target antigen human CD73-His.
(§2) Referring to the experimental method in Example 3, the affinity of 48A11-HuV33 for various mutant proteins of CD73-ND was determined. The SA protein was diluted to 1 μg/mL for coating the ELISA plates, and the biotinylated CD73 protein (CD73-biotin) was used at a concentration of 0.1 μg/mL.

CD73-ND-V186A = biological target: T2, CD73-ND-V186A (human, UniProt P21589 27-317); assay: ELISA, high plateau value (OD 450 nm)
T2 construct: Alanine mutant of CD73-ND
T2 sequence: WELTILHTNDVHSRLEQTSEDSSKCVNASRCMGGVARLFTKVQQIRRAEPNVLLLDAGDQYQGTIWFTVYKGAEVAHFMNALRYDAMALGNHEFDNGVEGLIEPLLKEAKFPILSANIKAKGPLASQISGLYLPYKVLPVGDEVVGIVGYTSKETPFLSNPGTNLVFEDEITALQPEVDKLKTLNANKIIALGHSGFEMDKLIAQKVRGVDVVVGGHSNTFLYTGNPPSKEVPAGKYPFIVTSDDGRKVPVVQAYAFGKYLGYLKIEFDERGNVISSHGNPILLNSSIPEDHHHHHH
Method: as §1, §2

CD73-ND-N187A = biological target: T3, CD73-ND-N187A (human, UniProt P21589 27-317); assay: ELISA, high plateau value (OD 450 nm)
T3 construct: Alanine mutant of CD73-ND
T3 sequence: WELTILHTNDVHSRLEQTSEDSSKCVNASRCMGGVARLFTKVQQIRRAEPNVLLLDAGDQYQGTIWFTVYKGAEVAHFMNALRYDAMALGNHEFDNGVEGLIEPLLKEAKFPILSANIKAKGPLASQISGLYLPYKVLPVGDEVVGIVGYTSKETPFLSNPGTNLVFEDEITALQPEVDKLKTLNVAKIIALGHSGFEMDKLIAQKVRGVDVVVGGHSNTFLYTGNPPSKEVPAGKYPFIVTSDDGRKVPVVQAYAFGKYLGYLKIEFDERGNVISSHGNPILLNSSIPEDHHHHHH
Method: as §1, §2

CD73-ND-E143A = biological target: T4, CD73-ND-E143A (human, UniProt P21589 27-317); assay: ELISA; decline multiple of Top against CD73-ND
T4 construct: Alanine mutant of CD73-ND
T4 sequence: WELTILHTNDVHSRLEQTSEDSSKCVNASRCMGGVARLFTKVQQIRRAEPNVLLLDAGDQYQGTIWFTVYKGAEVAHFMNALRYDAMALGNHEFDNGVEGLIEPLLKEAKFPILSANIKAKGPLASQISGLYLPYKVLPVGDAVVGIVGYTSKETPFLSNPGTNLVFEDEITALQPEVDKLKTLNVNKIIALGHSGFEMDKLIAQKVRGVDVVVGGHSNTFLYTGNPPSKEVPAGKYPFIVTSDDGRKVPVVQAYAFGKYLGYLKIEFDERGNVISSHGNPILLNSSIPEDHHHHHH
Method: as §1, §2

CD73-ND-K180A = biological target: T5, CD73-ND-K180A (human, UniProt P21589 27-317); assay: ELISA; decline multiple of Top against CD73-ND
T5 construct: Alanine mutant of CD73-ND
T5 sequence: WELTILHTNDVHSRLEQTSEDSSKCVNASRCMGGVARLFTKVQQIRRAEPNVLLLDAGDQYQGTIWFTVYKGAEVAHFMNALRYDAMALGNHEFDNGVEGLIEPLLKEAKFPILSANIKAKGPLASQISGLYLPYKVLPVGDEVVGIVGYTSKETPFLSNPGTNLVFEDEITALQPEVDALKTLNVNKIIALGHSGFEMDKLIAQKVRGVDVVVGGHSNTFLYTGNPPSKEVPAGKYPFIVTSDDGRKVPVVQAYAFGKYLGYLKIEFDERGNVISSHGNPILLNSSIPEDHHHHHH
Method: as §1, §2

CD73-ND-K136A = biological target: T6, CD73-ND-K136A (human, UniProt P21589 27-317); assay: ELISA; decline multiple of EC50 against CD73-ND
T6 construct: Alanine mutant of CD73-ND
T6 sequence: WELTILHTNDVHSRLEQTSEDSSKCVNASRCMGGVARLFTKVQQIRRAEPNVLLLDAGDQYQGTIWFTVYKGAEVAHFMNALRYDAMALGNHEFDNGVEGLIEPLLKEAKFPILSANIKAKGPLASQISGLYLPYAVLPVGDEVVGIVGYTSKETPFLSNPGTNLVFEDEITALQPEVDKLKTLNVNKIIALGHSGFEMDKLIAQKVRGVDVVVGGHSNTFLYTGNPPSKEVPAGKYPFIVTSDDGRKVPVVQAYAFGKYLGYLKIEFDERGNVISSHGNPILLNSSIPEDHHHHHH
Method: as §1, §2

B1: 48A11-HuV33 (antibody, human IgG4, V domains shown)
VH: QVQLVQSGAEVKKPGASVKVSCKASGYTFTSYWMHWVRQAPGQGLEWIGEINPSIGRTNYNEKFKSRVTLTRDTSTSTAYMELSSLRSEDTAVYYCARRVYGTMDYWGQGTLVTVSS
VL: DIQMTQSPSSLSASVGDRVTITCKASQDINSYLSWFQQKPGKSPKLLIYRANIWVDGVPSRFSGSGSGQDYTFTISSLQPEDIATYYCLQYDELYTFGQGTKVEIK
notes: Humanized
B1 showed a Top (CD73-ND-his) of 1.94, a Top (CD73-ND-V186A) of 1.62 and a Top (CD73-ND-N187A) of 1.77. For the same binder, the “Ratio(Top)” value (CD73-ND-E143A) was 1.1 fold, the “Ratio(Top)” value (CD73-ND-K180A) was 1.1 fold and the “Ratio(EC50)” value (CD73-ND-K136A) was 1 fold.
